Substrate in this series: CC(=O)N[C@@H](CC(=O)O)C(=O)N[C@@H](CCC(=O)O)C(=O)N[C@H](C(=O)N[C@@H](CC(=O)O)C(=O)N[C@@H](CSSC(C)(C)C)C(=O)N[C@@H](Cc1cn(CC[N+](C)(C)C[B-](F)(F)F)nn1)C(=O)Nc1ccc2nc(C#N)sc2c1)C(C)C
Briefly: Enzyme kinetics study of cleavage of 1. The class given is biochemical, human. The conditions noted are these: other: 1 at 0.1-2 mM, caspase-3 0.4 μg/1 mL, assay buffer pH 7.4, 37 °C, 1 h, HPLC. As for the experimental part:
Figure S17. (A) HPLC traces of probe 1 incubated with the cell lysates of apoptotic HeLa cells for 8 h.
Bottom: probe 1 alone; Top: reduced product (*) and cyclized product (#). (B) The content of 1-dimer after incubation with the cell lysates of apoptotic HeLa cells at different time.
For the enzyme-controlled cleavage kinetics studies, the probe 1 at different concentrations (0.1, 0.25, 0.5, 1, and 2 mM) was incubated with the caspase-3 (0.4 μg/1 mL) assay buffer (pH = 7.4) containing 50 mM HEPES, 100 mM NaCl, 1 mM EDTA, 1 mM DTT, 10% glycerol, and 0.1% CHAPS at 37 °C for 1 h, respectively. Then the caspase-3-cleaved intermediates were characterized by HPLC, and the kinetic parameters were determined according to the method reported previously. 4,5
Figure S18. Kinetic studies for the cleavage of probe 1 towards caspase-3.
Biocompatibility of 1 and 1-NPs
One cancer cell line (HeLa) and three normal cell lines (GES-1, LO2 and HEK293) were cultured in DMEM supplemented with 10% fetal bovine serum (FBS, Gibco). The cells were grown in tissue culture dishes and kept in a humidified atmosphere of 5% CO 2 at 37 °C. The […]
(1 picture or pasted object on this page, not shown here)

B1: caspase-3 (Homo sapiens) (protein)
chain 1: SGISLDNSYKMDYPEMGLCIIINNKNFHKSTGMTSRSGTDVDAANLRETFRNLKYEVRNKNDLTREEIVELMRDVSKEDHSKRSSFVCVLLSHGEEGIIFGTNGPVDLKKITNFFRGDRCRSLTGKPKLFIIQACRGTELDCGIETD
chain 2: SGVDDDMACHKIPVEADFLYAYSTAPGYYSWRNSKDGSWFIQSLCAMLKQYADKLEFMHILTRVNRKVATEFESFSFDATFHAKKQIPCIVSMLTKELYFYH
As to B1, the Michaelis constant (Km) came out at 330.43 µM, the kcat came to 6.22 s⁻¹ and the kcat/Km stood at 17617.56 M⁻¹ s⁻¹.

What is called Km is the concentration of substrate that gives half-maximal velocity. For orientation: kcat means the number of substrate molecules converted per active site and unit of time at saturation. By kcat/Km is commonly meant the turnover number divided by the Michaelis constant.

Values taken from paper PMC6815954, “Rational design of caspase-responsive smart molecular probe for positron emission tomography imaging of drug-induced apoptosis” (Theranostics, 2019).
